Tests used:
[1] = tested on: MCF-7 human breast adenocarcinoma cell line; assay: SRB cell proliferation (cytotoxicity) assay, MCF-7
Excerpt: (§1) The XLSTAT software was used to determine the IC50, TGI and LC50 values using the four-parameter logistic curve equation.

[2] = tested on: DU-145 human prostate carcinoma cell line; assay: SRB cell proliferation (cytotoxicity) assay, DU-145
Excerpt: as §1

[3] = tested on: A-375 human malignant melanoma; assay: SRB cell proliferation (cytotoxicity) assay, A-375
Excerpt: as §1

[4] = tested on: HT-29 human colorectal adenocarcinoma; assay: SRB cell proliferation (cytotoxicity) assay, HT-29
Excerpt: as §1

[5] = tested on: HCT 116 human colorectal carcinoma; assay: SRB cell proliferation (cytotoxicity) assay, HCT 116
Excerpt: as §1

[6] = tested on: SK-BR-3 human breast adenocarcinoma; assay: SRB cell proliferation (cytotoxicity) assay, SK-BR-3
Excerpt: as §1

[7] = tested on: OVCAR-3 human ovarian adenocarcinoma cell line; assay: SRB cell proliferation (cytotoxicity) assay, OVCAR-3
Excerpt: as §1

[8] = tested on: NHF human foreskin skin fibroblasts; assay: in vitro
Excerpt: as §1

[9] = molecular target: T1, native human galectin-1 (hGal1) (Homo sapiens, UniProt P09382); assay: Thermofluor thermal shift assay (TSA), native galectin-1; format: binding; details: 5 μM protein
T1 construct: 42; made in house; host or cells: E. coli strain M-15
Description: In an attempt to screen among the selected aptamers that better interact with hGal1, differential scanning fluorimetry (Termofluor) was used to characterize their binding to its target. Among all the selected aptamers, SEQ ID NO.: 4 seemed to have a more intense effect on hGal1 thermoshift and so was chosen for further analysis. The selected aptamer had its interaction evaluated with native and alkylated galectin-1. […] The respective thermal displacements were evaluated as a function of an increasing concentration of SEQ ID NO.: 4 (FIG. 1).
Thermofluor experiments were performed on an Mx3005 RT-PCR (Agilent Technologies) using the SYPRO® Orange dye (492/610 nm) (Invitrogen) as fluorescent probe. The purified (native and alkylated) protein samples were incubated for 30 min with increasing concentration of the molecules of interest, centrifuged, and submitted to the thermal denaturation assay, totalizing four distinct experiments. In a 96-well plate (Agilent Technologies) 20 μl of the reaction containing 5 μM of each protein in buffer PBS 1× and 5× SYPRO® Orange were heated from 25° C. to 95° C. at a rate of 1° C./min. The experimental result was processed as in the protocol previously described and the melting temperature was obtained using GraphPad Prism software (www.graphpad.com).

[10] = molecular target: T2, hGal1-induced hemagglutination of red blood cells (Homo sapiens, UniProt P09382); assay: Hemagglutination inhibition assay, native hGal1; format: cell-based; details: native Gal1 5 μM
T2 construct: 42; made in house; host or cells: E. coli strain M-15
Description: Hemagglutination Inhibition Assay
(§2) Hemagglutination assay was adopted to assess the capacity of SEQ ID NO.: 4 in inhibiting the lectin cross-linking aggregation of red blood cells (RBC), as previously described. Briefly, using a 96-well microplates appropriate amounts of 5 μM hGal1 were blended with 50 μL of aptamer in an increasing concentrations manner (0-40 μM) in PBS 1× buffer (pH 7.4). Following, 50 μL of 3% purified type B+ RBC in PBS. After 2 h of room temperature incubation, the plate was photographed and the hemagglutination area was estimated by area calculator Sketchandcalc™ and the results were expressed as relative agglutination.

[11] = molecular target: T3, alkylated Gal1 (Homo sapiens, UniProt P09382); assay: Hemagglutination inhibition assay, alkylated Gal1; format: cell-based; details: alkylated Gal1 5 μM
T3 construct: 42; made in house; host or cells: E. coli strain M-15
Description: FIG. 15 illustrates the hemagglutination test with constant protein concentration at 5 μM and titration of aptamers SEQ ID NO.: 4 and SEQ ID NO.: 9. (a) Titration with aptamer 4. The hemagglutination of native Gal1 was inhibited from the concentration of 10 μM of this compound.
as §2
It was observed that treating hGal-1 with Iodoacetamide, which covalently binds the acetamide group in all solvent accessible cysteines sulfhydryl side chain, abolishes the anti-hemagglutinating activity of the aptamer. According to the proposed binding mode, this happens because Cysteines 2, 88 and 130 interact directly with the aptamer and adding the acetamide group to their side chains would disrupt specific aptamer-protein interactions (FIG. 13C).

T2 sequence (P09382 2-135): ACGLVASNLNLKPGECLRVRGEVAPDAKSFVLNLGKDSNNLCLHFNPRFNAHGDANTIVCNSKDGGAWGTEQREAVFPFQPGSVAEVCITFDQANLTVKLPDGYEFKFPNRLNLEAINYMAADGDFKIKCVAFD
T1 sequence (P09382 2-135): as above
T3 sequence (P09382 2-135): as above

B1: AGCTGACACAGCAGGTTGGTGCCCAAAAGAGCCAATCCACGACGACACCCCAAAAACCATATCACGAATACCCGAGTCGAGCAATCTCGAAAT (nucleic acid)
DNA: AGCTGACACAGCAGGTTGGTGCCCAAAAGAGCCAATCCACGACGACACCCCAAAAACCATATCACGAATACCCGAGTCGAGCAATCTCGAAAT
modifications: chemistry not given here
- Relative viability (%) of test items ([1]; 0.781 µM): 103.8%
- Relative viability (%) of test items ([1]; 1.562 µM): 95.5%
- Relative viability (%) of test items ([1]; 3.125 µM): 97.8%
- Relative viability (%) of test items ([1]; 6.25 µM): 84.8%
- Relative viability (%) of test items ([1]; 12.5 µM): 73.6%
- Relative viability (%) of test items ([1]; 25 µM): 55.1%
- Relative viability (%) of test items ([1]; 50 µM): 37.5%
- Relative viability (%) of test items ([1]; 100 µM): −19.5%
- TGI: Concentration for total inhibition of cell growth ([1]; MCF-7): 80.767 µM
- IC50 ([1]; read-out: IC50: Concentration to inhibit 50% of cell growth, MCF-7): 32 µM
- CC50 ([1]; read-out: LC50: Concentration for 50% cell death, MCF-7): > 100 µM
- Relative viability (%) of test items ([2]; 0.781 µM): 106.1%
- Relative viability (%) of test items ([2]; 1.562 µM): 92.3%
- Relative viability (%) of test items ([2]; 3.125 µM): 106.4%
- Relative viability (%) of test items ([2]; 6.25 µM): 103.6%
- Relative viability (%) of test items ([2]; 12.5 µM): 98.7%
- Relative viability (%) of test items ([2]; 25 µM): 82.5%
- Relative viability (%) of test items ([2]; 50 µM): 68.0%
- Relative viability (%) of test items ([2]; 100 µM): 36.6%
- TGI: Concentration for total inhibition of cell growth ([2]; DU-145): >100 µM
- IC50 ([2]; read-out: IC50: Concentration to inhibit 50% of cell growth, DU-145): 74 µM
- Relative cell viability (%) of test items ([3]; 0.781 µM): 121.2%
- Relative cell viability (%) of test items ([3]; 1.562 µM): 107.1%
- Relative cell viability (%) of test items ([3]; 3.125 µM): 107.0%
- Relative cell viability (%) of test items ([3]; 6.25 µM): 114.0%
- Relative cell viability (%) of test items ([3]; 12.5 µM): 97.7%
- Relative cell viability (%) of test items ([3]; 25 µM): 92.5%
- Relative cell viability (%) of test items ([3]; 50 µM): 70.6%
- Relative cell viability (%) of test items ([3]; 100 µM): −19.4%
- TGI: Concentration for total inhibition of cell growth ([3]; A-375): 90.397 µM
- IC50 ([3]; read-out: IC50: Concentration to inhibit 50% of cell growth, A-375): 61.1 µM
- CC50 ([3]; read-out: LC50: Concentration for 50% cell death, A-375): > 100 µM
- Relative cell viability (%) of test items ([4]; 0.781 µM): 92.0%
- Relative cell viability (%) of test items ([4]; 1.562 µM): 95.9%
- Relative cell viability (%) of test items ([4]; 3.125 µM): 97.2%
- Relative cell viability (%) of test items ([4]; 6.25 µM): 92.5%
- Relative cell viability (%) of test items ([4]; 12.5 µM): 83.1%
- Relative cell viability (%) of test items ([4]; 25 µM): 32.7%
- Relative cell viability (%) of test items ([4]; 50 µM): 14.4%
- Relative cell viability (%) of test items ([4]; 100 µM): 0.2%
- IC50 ([4]; read-out: IC50: Concentration to inhibit 50% of cell growth, HT-29): 20.4 µM
- Relative cell viability (%) of test items ([5]; 0.781 µM): 99.9%
- Relative cell viability (%) of test items ([5]; 1.562 µM): 94.6%
- Relative cell viability (%) of test items ([5]; 3.125 µM): 87.9%
- Relative cell viability (%) of test items ([5]; 6.25 µM): 88.9%
- Relative cell viability (%) of test items ([5]; 12.5 µM): 72.2%
- Relative cell viability (%) of test items ([5]; 25 µM): 33.3%
- Relative cell viability (%) of test items ([5]; 50 µM): 11.5%
- Relative cell viability (%) of test items ([5]; 100 µM): −19.5%
- TGI: Concentration for total inhibition of cell growth ([5]; HCT 116): 58.519 µM
- IC50 ([5]; read-out: IC50: Concentration to inhibit 50% of cell growth, HCT 116): 20.1 µM
- Relative cell viability (%) of test items ([6]; 0.781 µM): 107.5%
- Relative cell viability (%) of test items ([6]; 1.562 µM): 99.9%
- Relative cell viability (%) of test items ([6]; 3.125 µM): 111.1%
- Relative cell viability (%) of test items ([6]; 6.25 µM): 109.1%
- Relative cell viability (%) of test items ([6]; 12.5 µM): 98.5%
- Relative cell viability (%) of test items ([6]; 25 µM): 48.7%
- Relative cell viability (%) of test items ([6]; 50 µM): 3.1%
- Relative cell viability (%) of test items ([6]; 100 µM): −70.0%
- TGI: Concentration for total inhibition of cell growth ([6]; SK-BR-3): 49.017 µM
- IC50 ([6]; read-out: IC50: Concentration to inhibit 50% of cell growth, SK-BR-3): 28.3 µM
- CC50 ([6]; read-out: LC50: Concentration for 50% cell death, SK-BR-3): 80.7 µM
- Relative viability (%) of test items ([7]; 0.781 µM): 105.9%
- Relative viability (%) of test items ([7]; 1.562 µM): 99.6%
- Relative viability (%) of test items ([7]; 3.125 µM): 93.9%
- Relative viability (%) of test items ([7]; 6.25 µM): 84.3%
- Relative viability (%) of test items ([7]; 12.5 µM): 50.2%
- Relative viability (%) of test items ([7]; 25 µM): 23.4%
- Relative viability (%) of test items ([7]; 50 µM): 8.1%
- Relative viability (%) of test items ([7]; 100 µM): −62.0%
- TGI: Concentration for total inhibition of cell growth ([7]; OVCAR-3): 45.952 µM
- IC50 ([7]; read-out: IC50: Concentration to inhibit 50% of cell growth, OVCAR-3): 16.1 µM
- CC50 ([7]; read-out: LC50: Concentration for 50% cell death, OVCAR-3): 91.4 µM
- Relative viability (%) of test items ([8]; 0.781 µM): 104.0%
- Relative viability (%) of test items ([8]; 1.562 µM): 96.2%
- Relative viability (%) of test items ([8]; 3.125 µM): 95.7%
- Relative viability (%) of test items ([8]; 6.25 µM): 92.7%
- Relative viability (%) of test items ([8]; 12.5 µM): 114.0%
- Relative viability (%) of test items ([8]; 25 µM): 84.6%
- Relative viability (%) of test items ([8]; 50 µM): 44.6%
- Relative viability (%) of test items ([8]; 100 µM): −12.8%
- TGI: Concentration for total inhibition of cell growth ([8]; NHF): 83.697 µM
- IC50 ([8]; read-out: IC50: Concentration to inhibit 50% of cell growth, NHF): 46.9 µM
- variation of denaturation temperature (Tm) of native hGal1 [9]: greater variation
- concentration from which hemagglutination was inhibited [10]: 10 µM
- inhibitory effect on galectin-induced hemagglutination [10]: better effect
- effect on hemagglutination by alkylated Gal1 [11]: no effect

Reference: patent US11649460B2, “DNA aptamers, method for inhibiting human galectin-1 and method of treating a mammal in need thereof” (priority 2020, dated 2023)
